The chains are these.
B1: His-tagged YTHDF2-N (YTHDF2-1-400) (domain or fragment, human, UniProt Q9Y5A9 1-400, looked up)
chain: MSASSLLEQRPKGQGNKVQNGSVHQKDGLNDDDFEPYLSPQARPNNAYTAMSDSYLPSYYSPSIGFSYSLGEAAWSTGGDTAMPYLTSYGQLSNGEPHFLPDAMFGQPGALGSTPFLGQHGFNFFPSGIDFSAWGNNSSQGQSTQSSGYSSNYAYAPSSLGGAMIDGQSAFANETLNKAPGMNTIDQGMAALKLGSTEVASNVPKVVGSAVGSGSITSNIVASNSLPPATIAPPKPASWADIASKPAKQQPKLKTKNGIAGSSLPPPPIKHNMDIGTWDNKGPVAKAPSQALVQNIGQPTQGSPQPVGQQANNSPPVAQASVGQQTQPLPPPPPQPAQLSVQQQAAQPTRWVAPRNRGSGFGHNGVDGNGVGQSQAGSGSTPSEPHPVLEKLRSINNYNP
notes: YTHDF2, human, N-terminal region, aa 1-400; Cloned into pET-28a; The YTHDF2-N of the tethering plasmids is another construct (aa 1-389); source: E. coli, purified recombinant
B2: CNOT1 SH domain-GST fusion protein (aa 1842-2376) (domain or fragment, human, UniProt A5YKK6 1842-2376, looked up)
chain: YDDPPGLREKAEYLLREWVNLYHSAAAGRDSTKAFSAFVGQMHQQGILKTDDLITRFFRLCTEMCVEISYRAQAEQQHNPAANPTMIRAKCYHNLDAFVRLIALLVKHSGEATNTVTKINLLNKVLGIVVGVLLQDHDVRQSEFQQLPYHRIFIMLLLELNAPEHVLETINFQTLTAFCNTFHILRPTKAPGFVYAWLELISHRIFIARMLAHTPQQKGWPMYAQLLIDLFKYLAPFLRNVELTKPMQILYKGTLRVLLVLLHDFPEFLCDYHYGFCDVIPPNCIQLRNLILSAFPRNMRLPDPFTPNLKVDMLSEINIAPRILTNFTGVMPPQFKKDLDSYLKTRSPVTFLSDLRSNLQVSNEPGNRYNLQLINALVLYVGTQAIAHIHNKGSTPSMSTITHSAHMDIFQNLAVDLDTEGRYLFLNAIANQLRYPNSHTHYFSCTMLYLFAEANTEAIQEQITRVLLERLIVNRPHPWGLLITFIELIKNPAFKFWNHEFVHCAPEIEKLFQSVAQCCMGQKQAQQVMEGTGAS
B3: His-tagged YTHDF2-101-200 (domain or fragment, human, UniProt Q9Y5A9 101-200, looked up)
chain: PDAMFGQPGALGSTPFLGQHGFNFFPSGIDFSAWGNNSSQGQSTQSSGYSSNYAYAPSSLGGAMIDGQSAFANETLNKAPGMNTIDQGMAALKLGSTEVA
notes: Cloned into pET-28a; source: E. coli, purified recombinant

Experiment [1] addresses B2. Nature of the experiment: pull-down; GST pull-down: 40 pmol YTHDF2 fragment with 40 pmol GST or GST-CNOT1 (aa 1842-2376) on glutathione Sepharose-4B; 20 mM HEPES pH 7.4, 200 mM NaCl, 0.1% Tween-20; 2 h at 4 °C; SDS-PAGE and Coomassie Blue staining. The conditions noted are these: both partners purified.
Experiment [2] deals with T1, His-tagged full-length YTHDF2 (human, UniProt Q9Y5A9 1-579).
T1 sequence (looked up): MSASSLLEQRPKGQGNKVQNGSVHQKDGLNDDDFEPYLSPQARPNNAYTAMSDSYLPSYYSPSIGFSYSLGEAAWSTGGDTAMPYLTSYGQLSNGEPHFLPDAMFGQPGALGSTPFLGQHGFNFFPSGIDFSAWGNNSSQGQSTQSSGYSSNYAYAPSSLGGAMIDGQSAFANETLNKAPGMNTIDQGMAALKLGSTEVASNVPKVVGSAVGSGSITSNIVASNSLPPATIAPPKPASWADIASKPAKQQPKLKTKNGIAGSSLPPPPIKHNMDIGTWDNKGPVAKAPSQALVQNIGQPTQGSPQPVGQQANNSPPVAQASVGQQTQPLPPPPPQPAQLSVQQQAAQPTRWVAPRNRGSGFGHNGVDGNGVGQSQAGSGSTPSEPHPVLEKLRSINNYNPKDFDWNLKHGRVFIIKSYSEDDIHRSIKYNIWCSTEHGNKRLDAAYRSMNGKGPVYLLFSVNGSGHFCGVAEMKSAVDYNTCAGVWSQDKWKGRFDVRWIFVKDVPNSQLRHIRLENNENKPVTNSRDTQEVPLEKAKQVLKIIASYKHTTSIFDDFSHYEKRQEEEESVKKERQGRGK
The description is as above. The settings on record: both partners purified.

For the molecule B1, the binding result in experiment [1] is recorded as “binds”.

On to B2, for which the binding result in experiment [2] is reported as “binds”.

For the molecule B3, the binding result in experiment [1] was “binds”.

For the origin of these results see paper PMC5007331, “YTHDF2 destabilizes m^6A-containing RNA through direct recruitment of the CCR4–NOT deadenylase complex” (Nature Communications, 2016).
